These results are taken from patent US20020103121A1.

The target in this experiment is GAL4 activation domain-E2F-1 hybrid protein (GAD.E2F-1) (human). The experiment can be described thus: cell-based or functional assay.

Regarding “LexA-DP-1^172/173 hybrid protein (pLEX-DP-1/MT) (from UniProt Q08639 1-410)”, the activity in the yeast two-hybrid assay relative to wild-type DP-1 (% reduction relative to wild-type DP-1) is 50 and the response of the E2F binding site reporter in yeast is 50 % reduction.
